In publication PMC5533585 one finds percent of the tagged subunit incorporated into the complex data, which are given here for 1 substance.

The test concerns the target cytoplasmic dynein-1 heavy chain (human (endogenous in HEK-293)) (UniProt Q14204). Nature of the test: co-IP + SEC; FLAG immunoprecipitate (GF buffer: 50 mM Tris-HCl pH 8.0, 150 mM NaCl, glycerol, 0.2% Triton X-100) run on Superose 6 Increase 10/300 GL; fractions blotted with anti-FLAG, anti-HC, anti-p150; percent = intensity incorporated/(free + incorporated).
Chain of UniProt Q14204 (Q14204 whole entry): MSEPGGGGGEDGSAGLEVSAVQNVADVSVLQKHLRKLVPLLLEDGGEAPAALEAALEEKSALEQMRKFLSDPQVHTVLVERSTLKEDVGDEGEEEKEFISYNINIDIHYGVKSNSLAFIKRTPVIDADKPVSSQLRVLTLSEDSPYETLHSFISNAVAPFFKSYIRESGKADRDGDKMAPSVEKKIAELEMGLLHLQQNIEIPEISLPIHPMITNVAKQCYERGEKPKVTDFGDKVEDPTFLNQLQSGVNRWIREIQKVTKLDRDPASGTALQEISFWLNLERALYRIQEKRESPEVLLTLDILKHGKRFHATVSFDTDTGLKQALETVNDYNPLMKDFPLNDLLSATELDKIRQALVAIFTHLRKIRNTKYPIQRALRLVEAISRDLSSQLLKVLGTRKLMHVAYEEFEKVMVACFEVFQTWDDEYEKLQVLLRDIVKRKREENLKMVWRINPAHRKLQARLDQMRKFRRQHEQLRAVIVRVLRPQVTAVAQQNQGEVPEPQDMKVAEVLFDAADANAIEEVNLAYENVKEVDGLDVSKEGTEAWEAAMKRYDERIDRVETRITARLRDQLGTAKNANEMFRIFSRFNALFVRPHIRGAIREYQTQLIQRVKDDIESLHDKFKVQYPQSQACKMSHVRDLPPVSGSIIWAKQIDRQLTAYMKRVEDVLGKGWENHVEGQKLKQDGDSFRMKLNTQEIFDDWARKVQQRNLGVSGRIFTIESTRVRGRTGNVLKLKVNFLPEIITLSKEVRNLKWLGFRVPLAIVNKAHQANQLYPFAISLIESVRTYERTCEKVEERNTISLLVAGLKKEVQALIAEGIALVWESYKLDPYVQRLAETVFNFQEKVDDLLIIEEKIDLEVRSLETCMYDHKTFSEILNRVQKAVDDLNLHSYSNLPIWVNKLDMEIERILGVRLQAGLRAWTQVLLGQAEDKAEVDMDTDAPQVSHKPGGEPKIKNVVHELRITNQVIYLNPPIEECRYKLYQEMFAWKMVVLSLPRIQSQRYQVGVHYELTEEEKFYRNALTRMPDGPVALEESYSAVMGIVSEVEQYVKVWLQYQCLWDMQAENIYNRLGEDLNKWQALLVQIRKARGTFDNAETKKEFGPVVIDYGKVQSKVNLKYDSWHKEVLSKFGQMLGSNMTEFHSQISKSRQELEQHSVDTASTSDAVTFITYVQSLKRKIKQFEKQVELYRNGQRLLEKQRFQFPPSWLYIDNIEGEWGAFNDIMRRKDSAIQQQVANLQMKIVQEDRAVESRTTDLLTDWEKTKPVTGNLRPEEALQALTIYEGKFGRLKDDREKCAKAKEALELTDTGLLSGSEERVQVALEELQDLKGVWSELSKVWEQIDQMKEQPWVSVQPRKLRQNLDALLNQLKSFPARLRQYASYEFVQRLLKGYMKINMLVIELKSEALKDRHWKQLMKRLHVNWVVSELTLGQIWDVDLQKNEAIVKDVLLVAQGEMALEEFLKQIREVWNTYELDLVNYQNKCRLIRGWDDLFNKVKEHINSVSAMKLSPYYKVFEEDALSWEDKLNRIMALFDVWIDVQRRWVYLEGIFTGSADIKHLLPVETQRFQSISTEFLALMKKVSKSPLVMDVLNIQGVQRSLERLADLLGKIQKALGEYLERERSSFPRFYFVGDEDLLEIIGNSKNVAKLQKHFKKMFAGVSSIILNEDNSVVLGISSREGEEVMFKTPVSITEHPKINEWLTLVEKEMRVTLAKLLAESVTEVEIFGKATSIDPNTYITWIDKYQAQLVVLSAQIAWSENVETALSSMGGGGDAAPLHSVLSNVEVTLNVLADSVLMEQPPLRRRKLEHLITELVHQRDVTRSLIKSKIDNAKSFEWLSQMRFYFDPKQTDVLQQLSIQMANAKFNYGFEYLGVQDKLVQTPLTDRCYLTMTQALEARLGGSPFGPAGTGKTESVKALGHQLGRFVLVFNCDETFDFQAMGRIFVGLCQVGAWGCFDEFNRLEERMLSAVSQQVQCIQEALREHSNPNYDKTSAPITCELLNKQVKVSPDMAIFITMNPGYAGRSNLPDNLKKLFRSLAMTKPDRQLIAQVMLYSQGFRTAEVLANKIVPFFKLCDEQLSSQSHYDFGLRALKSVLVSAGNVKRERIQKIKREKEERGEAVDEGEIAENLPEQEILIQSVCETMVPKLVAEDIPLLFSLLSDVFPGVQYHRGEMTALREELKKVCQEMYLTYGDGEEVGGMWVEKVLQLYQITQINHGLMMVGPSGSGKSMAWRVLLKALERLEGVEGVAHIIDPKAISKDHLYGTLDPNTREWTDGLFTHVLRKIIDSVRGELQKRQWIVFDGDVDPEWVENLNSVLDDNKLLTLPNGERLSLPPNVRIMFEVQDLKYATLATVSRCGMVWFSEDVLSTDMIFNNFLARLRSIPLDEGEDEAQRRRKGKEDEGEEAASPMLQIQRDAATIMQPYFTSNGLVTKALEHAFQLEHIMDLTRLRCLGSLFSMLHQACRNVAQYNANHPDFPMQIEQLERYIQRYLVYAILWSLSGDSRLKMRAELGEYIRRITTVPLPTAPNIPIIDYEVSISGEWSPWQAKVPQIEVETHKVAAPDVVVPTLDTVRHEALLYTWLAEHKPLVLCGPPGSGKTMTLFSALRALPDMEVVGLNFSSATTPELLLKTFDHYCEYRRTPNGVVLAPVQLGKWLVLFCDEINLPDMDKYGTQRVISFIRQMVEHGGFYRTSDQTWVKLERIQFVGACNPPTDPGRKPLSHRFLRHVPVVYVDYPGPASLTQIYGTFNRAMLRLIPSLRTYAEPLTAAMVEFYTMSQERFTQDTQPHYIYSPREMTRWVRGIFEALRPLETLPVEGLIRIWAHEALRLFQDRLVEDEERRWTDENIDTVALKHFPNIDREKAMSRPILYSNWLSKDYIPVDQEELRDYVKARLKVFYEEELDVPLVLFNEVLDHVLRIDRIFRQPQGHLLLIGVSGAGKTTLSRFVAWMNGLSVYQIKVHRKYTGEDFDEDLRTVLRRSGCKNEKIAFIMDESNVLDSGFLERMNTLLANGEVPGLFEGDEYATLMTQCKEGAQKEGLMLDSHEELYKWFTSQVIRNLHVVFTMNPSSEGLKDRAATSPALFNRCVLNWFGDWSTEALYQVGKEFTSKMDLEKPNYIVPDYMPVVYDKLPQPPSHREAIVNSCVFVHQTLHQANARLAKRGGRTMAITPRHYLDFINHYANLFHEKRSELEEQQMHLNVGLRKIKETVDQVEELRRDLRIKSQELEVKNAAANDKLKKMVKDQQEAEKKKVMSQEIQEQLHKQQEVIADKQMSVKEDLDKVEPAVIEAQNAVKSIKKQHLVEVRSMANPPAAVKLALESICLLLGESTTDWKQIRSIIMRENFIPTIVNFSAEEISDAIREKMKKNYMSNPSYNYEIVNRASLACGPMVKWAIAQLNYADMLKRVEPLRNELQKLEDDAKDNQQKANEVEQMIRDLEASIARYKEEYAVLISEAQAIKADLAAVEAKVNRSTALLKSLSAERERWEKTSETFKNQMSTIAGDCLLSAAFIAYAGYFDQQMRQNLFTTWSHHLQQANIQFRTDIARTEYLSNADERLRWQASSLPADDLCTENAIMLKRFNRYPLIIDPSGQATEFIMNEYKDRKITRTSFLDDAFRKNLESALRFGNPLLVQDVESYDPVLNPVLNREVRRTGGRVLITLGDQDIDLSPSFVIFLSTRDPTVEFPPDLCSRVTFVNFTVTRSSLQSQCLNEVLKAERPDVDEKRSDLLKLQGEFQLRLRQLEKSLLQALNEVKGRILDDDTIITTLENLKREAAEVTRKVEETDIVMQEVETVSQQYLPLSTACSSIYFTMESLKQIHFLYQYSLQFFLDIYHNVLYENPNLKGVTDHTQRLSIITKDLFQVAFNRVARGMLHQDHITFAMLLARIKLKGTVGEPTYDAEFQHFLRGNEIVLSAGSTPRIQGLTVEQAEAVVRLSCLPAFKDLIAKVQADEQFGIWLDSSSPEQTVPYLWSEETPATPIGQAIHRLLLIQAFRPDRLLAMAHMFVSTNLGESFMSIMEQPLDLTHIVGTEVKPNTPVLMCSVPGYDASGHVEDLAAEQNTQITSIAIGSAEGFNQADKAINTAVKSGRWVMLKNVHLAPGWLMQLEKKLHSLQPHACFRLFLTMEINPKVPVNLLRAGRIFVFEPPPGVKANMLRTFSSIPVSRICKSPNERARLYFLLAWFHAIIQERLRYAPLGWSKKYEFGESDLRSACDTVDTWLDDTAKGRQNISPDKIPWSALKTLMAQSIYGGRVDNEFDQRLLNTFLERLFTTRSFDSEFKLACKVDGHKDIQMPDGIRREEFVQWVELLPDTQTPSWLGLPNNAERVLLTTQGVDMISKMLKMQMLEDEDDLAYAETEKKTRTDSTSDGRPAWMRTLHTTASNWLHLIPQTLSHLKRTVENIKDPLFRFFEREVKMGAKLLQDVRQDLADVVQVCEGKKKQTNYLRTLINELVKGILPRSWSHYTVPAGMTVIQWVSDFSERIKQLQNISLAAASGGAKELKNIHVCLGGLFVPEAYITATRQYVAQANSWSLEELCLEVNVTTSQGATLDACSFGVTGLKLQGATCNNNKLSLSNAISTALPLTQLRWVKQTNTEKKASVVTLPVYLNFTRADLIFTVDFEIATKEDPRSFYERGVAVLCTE

IC2-BioID-3×FLAG (natural protein): the percent of the tagged subunit incorporated into the complex is 51%.
